Test results as given in PMC6412121.

Target: TF-TDP-43-FL (UniProt Q13148)
Assay: EMSA
Settings: biotin-UTP incorporated in transcription; EMSA: 40 mM Tris-HCl pH 7.4, 30 mM KCl, 1 mM MgCl2, 0.01% IGEPAL CA-630, 1 mM DTT, 10 ug yeast tRNA, 10 ug BSA, 10 ng RNA, 200 ng protein in 10 ul, 25 C, 20 min

Sequence of TF-TDP-43-FL (Q13148 whole entry): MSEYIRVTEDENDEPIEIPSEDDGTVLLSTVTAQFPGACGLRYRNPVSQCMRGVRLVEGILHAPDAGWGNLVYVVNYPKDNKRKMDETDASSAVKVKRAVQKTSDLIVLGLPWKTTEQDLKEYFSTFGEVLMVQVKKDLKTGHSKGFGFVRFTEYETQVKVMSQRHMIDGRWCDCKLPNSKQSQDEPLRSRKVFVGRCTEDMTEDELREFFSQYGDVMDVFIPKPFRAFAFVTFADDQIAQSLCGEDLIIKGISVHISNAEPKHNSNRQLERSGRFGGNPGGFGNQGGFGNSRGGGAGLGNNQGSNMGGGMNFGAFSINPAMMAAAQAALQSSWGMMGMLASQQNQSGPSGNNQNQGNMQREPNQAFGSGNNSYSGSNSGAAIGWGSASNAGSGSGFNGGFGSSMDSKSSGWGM

With “GGGAGAGCAAAGUGAUGAGUAAUACUGGCUGGAGCCCCAAAGAGGCACGUGUGUGUGUUUGUGUGUGUGUGUAUAUGCUUGUCAGUGCAUGCACGUGUAUGUCUGGGAGUACAAAUGGGUGCGACUGGUUGUAGGGAACUAGCUAUGUGCCUUCUAUUAGGCCAUGACAGUCAAACUGAUAAGAUCUGAUUGC [scaRNA28]” the binding was “binds”.
